The values that follow come from publication PMC11024299, “Probing the active site of Class 3 L-asparaginase by mutagenesis. I. Tinkering with the zinc coordination site of ReAV” (Frontiers in Chemistry, 2024).

The target of one series is T1, ReAV (Rhizobium etli, UniProt Q2K0Z2).
T1 construct: gene ansA; recombinant from plasmid pET151-D-ReAV in E. coli BL21 Gold (DE3); His-tag cut with TEV protease; homodimer, Zn site C135/K138/C189
Kind of series: multiple injection isothermal titration calorimetry (ITC-MIM). Particulars: 10 mM Tris-HCl pH 9.0, 37 °C, no added Zn2+; WT values cited to the same group's earlier paper (Sliwiak et al., 2024); cited from earlier work. The series is classed as biochemical. From the text:
(§1) multiple injection isothermal titration calorimetry (ITC-MIM) on ReAV
On the technique in general: In ITC the heat of successive injections is recorded.

Substrate in series [1]: NC(=O)C[C@H](N)C(=O)O
The series is described as above. Format: biochemical, Rhizobium etli. Particulars: 10 mM Tris-HCl pH 9.0, 37 °C, no added Zn2+.
Text: as §1

Series [2] deals with the molecule itself. Kind of series: crystal structure; vapor diffusion crystals grown at 19°C, protein supplemented with 0.5%-1% DDM; data at 100 K; molecular replacement with WT ReAV (PDB 7os5); homodimer(s) in the asymmetric unit.

T1 sequence (Q2K0Z2 entry or part of it): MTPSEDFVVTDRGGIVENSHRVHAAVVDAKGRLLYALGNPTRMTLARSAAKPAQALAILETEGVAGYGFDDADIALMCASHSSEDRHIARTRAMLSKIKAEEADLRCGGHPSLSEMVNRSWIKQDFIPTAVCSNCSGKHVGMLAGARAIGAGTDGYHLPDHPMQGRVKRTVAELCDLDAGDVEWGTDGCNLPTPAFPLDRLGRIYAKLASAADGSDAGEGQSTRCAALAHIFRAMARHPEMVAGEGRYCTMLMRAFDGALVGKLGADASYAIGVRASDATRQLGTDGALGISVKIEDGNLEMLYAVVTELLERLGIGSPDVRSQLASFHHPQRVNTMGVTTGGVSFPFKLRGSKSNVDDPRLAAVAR

For the molecule `NC(=O)C[C@H](N)C(=O)O` [L-asparagine], at ReAV, the Michaelis-Menten constant (Km) is 2700 ± 100 µM.

B1: ReAV H139A (enzyme, Rhizobium etli)
chain: MTPSEDFVVTDRGGIVENSHRVHAAVVDAKGRLLYALGNPTRMTLARSAAKPAQALAILETEGVAGYGFDDADIALMCASHSSEDRHIARTRAMLSKIKAEEADLRCGGHPSLSEMVNRSWIKQDFIPTAVCSNCSGKAVGMLAGARAIGAGTDGYHLPDHPMQGRVKRTVAELCDLDAGDVEWGTDGCNLPTPAFPLDRLGRIYAKLASAADGSDAGEGQSTRCAALAHIFRAMARHPEMVAGEGRYCTMLMRAFDGALVGKLGADASYAIGVRASDATRQLGTDGALGISVKIEDGNLEMLYAVVTELLERLGIGSPDVRSQLASFHHPQRVNTMGVTTGGVSFPFKLRGSKSNVDDPRLAAVAR
notes: Homodimer in the crystal (two dimers per asymmetric unit); also called H139A mutant; Rhizobium etli Class 3 L-asparaginase ReAV H139A mutein; source: E. coli BL21 Gold, purified (HisTrap, TEV digestion, Superdex 200)
With B1, in series [1], the Michaelis-Menten constant (Km) amounted to 5600 ± 200 µM, the catalytic constant (kcat) is 445 ± 20 s⁻¹ and the kcat/Km amounted to 80000 ± 1000 M⁻¹ s⁻¹. Besides, the binding result in series [2] is “binds”.

B2: ReAV C189A (enzyme, Rhizobium etli)
chain: MTPSEDFVVTDRGGIVENSHRVHAAVVDAKGRLLYALGNPTRMTLARSAAKPAQALAILETEGVAGYGFDDADIALMCASHSSEDRHIARTRAMLSKIKAEEADLRCGGHPSLSEMVNRSWIKQDFIPTAVCSNCSGKHVGMLAGARAIGAGTDGYHLPDHPMQGRVKRTVAELCDLDAGDVEWGTDGANLPTPAFPLDRLGRIYAKLASAADGSDAGEGQSTRCAALAHIFRAMARHPEMVAGEGRYCTMLMRAFDGALVGKLGADASYAIGVRASDATRQLGTDGALGISVKIEDGNLEMLYAVVTELLERLGIGSPDVRSQLASFHHPQRVNTMGVTTGGVSFPFKLRGSKSNVDDPRLAAVAR
notes: Homodimer in the crystal (one dimer per asymmetric unit); also called C189A mutant; Rhizobium etli Class 3 L-asparaginase ReAV C189A mutein; source: E. coli BL21 Gold, purified (HisTrap, TEV digestion, Superdex 200)
Turning to B2, the binding result in series [2] is given as “binds”.

B3: ReAV K138A (enzyme, Rhizobium etli)
chain: MTPSEDFVVTDRGGIVENSHRVHAAVVDAKGRLLYALGNPTRMTLARSAAKPAQALAILETEGVAGYGFDDADIALMCASHSSEDRHIARTRAMLSKIKAEEADLRCGGHPSLSEMVNRSWIKQDFIPTAVCSNCSGAHVGMLAGARAIGAGTDGYHLPDHPMQGRVKRTVAELCDLDAGDVEWGTDGCNLPTPAFPLDRLGRIYAKLASAADGSDAGEGQSTRCAALAHIFRAMARHPEMVAGEGRYCTMLMRAFDGALVGKLGADASYAIGVRASDATRQLGTDGALGISVKIEDGNLEMLYAVVTELLERLGIGSPDVRSQLASFHHPQRVNTMGVTTGGVSFPFKLRGSKSNVDDPRLAAVAR
notes: Homodimer in the crystal (two dimers per asymmetric unit); also called K138A mutant; Rhizobium etli Class 3 L-asparaginase ReAV K138A mutein; source: E. coli BL21 Gold, purified (HisTrap, TEV digestion, Superdex 200)
Consider B3, for which, in series [2], the binding result is reported as “binds”.

B4: ReAV C135A (enzyme, Rhizobium etli)
chain: MTPSEDFVVTDRGGIVENSHRVHAAVVDAKGRLLYALGNPTRMTLARSAAKPAQALAILETEGVAGYGFDDADIALMCASHSSEDRHIARTRAMLSKIKAEEADLRCGGHPSLSEMVNRSWIKQDFIPTAVCSNASGKHVGMLAGARAIGAGTDGYHLPDHPMQGRVKRTVAELCDLDAGDVEWGTDGCNLPTPAFPLDRLGRIYAKLASAADGSDAGEGQSTRCAALAHIFRAMARHPEMVAGEGRYCTMLMRAFDGALVGKLGADASYAIGVRASDATRQLGTDGALGISVKIEDGNLEMLYAVVTELLERLGIGSPDVRSQLASFHHPQRVNTMGVTTGGVSFPFKLRGSKSNVDDPRLAAVAR
notes: Homodimer in the crystal (one dimer per asymmetric unit); also called C135A mutant; Rhizobium etli Class 3 L-asparaginase ReAV C135A mutein; source: E. coli BL21 Gold, purified (HisTrap, TEV digestion, Superdex 200)
As to B4, the binding result in series [2] is “binds”.

B5: ReAV D187A (enzyme, Rhizobium etli)
chain: MTPSEDFVVTDRGGIVENSHRVHAAVVDAKGRLLYALGNPTRMTLARSAAKPAQALAILETEGVAGYGFDDADIALMCASHSSEDRHIARTRAMLSKIKAEEADLRCGGHPSLSEMVNRSWIKQDFIPTAVCSNCSGKHVGMLAGARAIGAGTDGYHLPDHPMQGRVKRTVAELCDLDAGDVEWGTAGCNLPTPAFPLDRLGRIYAKLASAADGSDAGEGQSTRCAALAHIFRAMARHPEMVAGEGRYCTMLMRAFDGALVGKLGADASYAIGVRASDATRQLGTDGALGISVKIEDGNLEMLYAVVTELLERLGIGSPDVRSQLASFHHPQRVNTMGVTTGGVSFPFKLRGSKSNVDDPRLAAVAR
notes: Homodimer in the crystal (two dimers per asymmetric unit); also called D187A mutant; Rhizobium etli Class 3 L-asparaginase ReAV D187A mutein; source: E. coli BL21 Gold, purified (HisTrap, TEV digestion, Superdex 200)
As to B5, the binding result in series [2] is reported as “binds”.

As a reminder, the Km is the concentration of substrate that gives half-maximal velocity. As usually defined, the kcat is the maximal rate divided by the concentration of active sites. Broadly, the kcat/Km is the second-order rate constant that governs catalysis at low substrate concentration.
